Measured values reported in patent US20170368168A1 (AGENUS, published 2017).
Residue numbers refer to the chain shown, from its start. Numbers in names are those of the source.

T1: recombinant human DR3 Fc (R&D Systems, #943-D3) (human, UniProt Q93038 25-201)
T1 construct: also called rhDR3 Fc; not shown: Fc part
T1 sequence (looked up): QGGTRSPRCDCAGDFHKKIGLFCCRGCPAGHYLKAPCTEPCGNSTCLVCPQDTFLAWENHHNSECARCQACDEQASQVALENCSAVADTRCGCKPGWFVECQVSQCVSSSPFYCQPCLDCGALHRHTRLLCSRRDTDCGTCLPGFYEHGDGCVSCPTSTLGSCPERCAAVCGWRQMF

T2: recombinant human GITR Fc (R&D Systems, #689-GR) (human, UniProt Q9Y5U5 26-161)
T2 construct: also called rhGITR Fc; not shown: Fc part
T2 sequence (looked up): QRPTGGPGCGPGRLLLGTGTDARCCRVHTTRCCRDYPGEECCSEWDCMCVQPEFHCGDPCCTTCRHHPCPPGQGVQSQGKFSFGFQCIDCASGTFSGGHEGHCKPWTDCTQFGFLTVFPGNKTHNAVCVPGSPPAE

T3: recombinant human TIM-4 His (R&D, Cat#2929-TM) (human, UniProt Q96H15 25-315)
T3 construct: also called rhTIM-4 His
T3 sequence (looked up): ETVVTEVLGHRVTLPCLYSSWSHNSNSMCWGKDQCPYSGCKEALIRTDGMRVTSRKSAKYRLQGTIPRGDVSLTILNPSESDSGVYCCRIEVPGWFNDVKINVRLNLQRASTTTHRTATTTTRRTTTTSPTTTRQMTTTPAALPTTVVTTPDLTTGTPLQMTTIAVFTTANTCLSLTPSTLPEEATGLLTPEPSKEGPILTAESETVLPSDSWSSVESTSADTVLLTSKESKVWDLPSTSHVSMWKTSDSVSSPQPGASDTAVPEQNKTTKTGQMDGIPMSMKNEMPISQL

T4: recombinant human OX40 His (Sino Biological, #10481-H08H) (human, UniProt P43489 29-216)
T4 construct: also called rhOX40 His
T4 sequence (looked up): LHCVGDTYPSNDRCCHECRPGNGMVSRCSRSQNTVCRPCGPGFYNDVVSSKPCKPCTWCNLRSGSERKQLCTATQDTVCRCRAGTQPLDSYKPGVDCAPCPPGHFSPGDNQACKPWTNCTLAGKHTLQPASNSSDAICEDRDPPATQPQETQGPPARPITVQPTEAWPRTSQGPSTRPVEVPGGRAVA

T5: recombinant mouse TIM-3 Fc (R&D Systems, #1529-TM) (mouse, UniProt Q8VIM0 20-191)
T5 construct: also called rmTIM-3 Fc; not shown: Fc part
T5 sequence (looked up): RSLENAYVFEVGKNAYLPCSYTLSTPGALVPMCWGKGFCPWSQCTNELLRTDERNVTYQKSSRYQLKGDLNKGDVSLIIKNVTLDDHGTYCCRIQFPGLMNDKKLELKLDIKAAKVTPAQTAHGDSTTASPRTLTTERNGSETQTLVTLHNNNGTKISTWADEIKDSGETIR

T6: recombinant human TIM-1 His (R&D Systems, Cat#1750-TM) (human, UniProt Q96D42 21-295)
T6 construct: also called rhTIM-1 His
T6 sequence (looked up): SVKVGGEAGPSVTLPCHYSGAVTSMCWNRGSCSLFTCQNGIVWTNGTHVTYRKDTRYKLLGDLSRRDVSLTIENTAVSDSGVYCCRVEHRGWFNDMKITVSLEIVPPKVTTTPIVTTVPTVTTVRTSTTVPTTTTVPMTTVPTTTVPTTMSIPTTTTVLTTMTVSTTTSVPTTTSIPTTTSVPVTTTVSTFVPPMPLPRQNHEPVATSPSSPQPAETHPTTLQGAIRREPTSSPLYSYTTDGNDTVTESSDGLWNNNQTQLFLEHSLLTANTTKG

T7: human TIM-3 expressed on cells (human, UniProt Q8TDQ0 22-301)
T7 construct: also called T cell immunoglobulin and mucin domain-3; HAVCR2
T7 sequence: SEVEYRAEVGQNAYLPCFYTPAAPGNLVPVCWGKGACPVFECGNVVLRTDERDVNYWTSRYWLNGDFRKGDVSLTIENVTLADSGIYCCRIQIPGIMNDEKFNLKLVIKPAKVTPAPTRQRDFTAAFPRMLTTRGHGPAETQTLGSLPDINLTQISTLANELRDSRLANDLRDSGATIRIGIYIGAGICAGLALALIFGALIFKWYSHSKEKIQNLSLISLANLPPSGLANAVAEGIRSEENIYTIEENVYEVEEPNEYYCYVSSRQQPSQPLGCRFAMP

B1: AM-2 (IgG1 N297A) (antibody, V domains shown)
VH: EVQLVESGGGLVQPGGSLRLSCAASGFTFRQNAWSWVRRAPGKGLEWVSAISGSGGSTYYADSVKGRFTISRDNSKNTLYLQMNSLRAEDTAVYYCAKGGDYGGNYFDYWGQGTLVTVSS
VL: EIVLTQSPATLSLSPGERATLSCRASQSVSSYLAWYQQKPGQAPRLLIYDASNRATGIPASFSGSGSGTDFTLTISRLEPEDFAVYYCQQYGSSPLTFGGGTKVEIKR
B2: pab2188w (IgG1 N297A) (antibody, V domains shown)
VH: not shown
VL: B1 VL
B3: AM-6 (IgG1 N297A) (antibody, V domains shown)
VH: B1 VH with R30A, Q31R
VL: B1 VL
B4: pab2191 (IgG1 variant) (antibody, V domains shown)
VH: not shown
VL: EIVLTQSPGTLSLSPGERATLSCRASQSVSSYLAWYQQKPGQAPRLLIYDASNRATGIPARFSGSGSGTDFTLTISRLEPEDFAVYYCQQYGSSPLTFGGGTKVEIK
B5: pab2186 (IgG1 variant) (antibody, V domains shown)
VH: not shown
VL: B4 VL with G9A, R77S
B6: pab2190 (IgG1 variant) (antibody, V domains shown)
VH: not shown
VL: B4 VL with N53S, A60D
B7: pab2192 (IgG1 variant) (antibody, V domains shown)
VH: not shown
VL: B4 VL with D50G, N53S, L96I
B8: pab2184 (IgG1 variant) (antibody, V domains shown)
VH: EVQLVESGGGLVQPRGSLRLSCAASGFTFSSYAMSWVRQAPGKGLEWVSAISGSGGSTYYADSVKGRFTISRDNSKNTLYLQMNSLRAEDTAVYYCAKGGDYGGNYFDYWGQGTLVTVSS
VL: B4 VL with D50G, N53S, L96I
B9: pab2189 (IgG1 variant) (antibody, V domains shown)
VH: not shown
VL: B4 VL with G9A
B10: AM-3 (IgG1 N297A) (antibody, V domains shown)
VH: B1 VH with R30M, Q31S, N32G, A33Q, W34T
VL: B1 VL
B11: pab2174 (IgG1) (antibody, V domains shown)
VH: not shown
VL: B4 VL with G9A
B12: pab2191 (IgG1) (antibody, V domains shown)
VH: not shown
VL: B4 VL
B13: pab2178 (IgG1) (antibody, V domains shown)
VH: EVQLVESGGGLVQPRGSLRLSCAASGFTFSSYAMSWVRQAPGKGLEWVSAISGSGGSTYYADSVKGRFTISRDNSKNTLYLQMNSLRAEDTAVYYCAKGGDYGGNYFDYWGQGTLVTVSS
VL: B4 VL with G9A, R61S
B14: pab2177 (IgG1) (antibody, V domains shown)
VH: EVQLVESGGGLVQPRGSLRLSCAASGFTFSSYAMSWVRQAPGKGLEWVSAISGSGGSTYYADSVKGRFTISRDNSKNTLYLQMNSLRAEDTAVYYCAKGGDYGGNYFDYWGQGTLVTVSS
VL: B4 VL
B15: pab2186 (IgG1) (antibody, V domains shown)
VH: not shown
VL: B4 VL with G9A, R77S
B16: pab2192 (IgG1) (antibody, V domains shown)
VH: not shown
VL: B4 VL with D50G, N53S, L96I
B17: pab2173 (IgG1) (antibody, V domains shown)
VH: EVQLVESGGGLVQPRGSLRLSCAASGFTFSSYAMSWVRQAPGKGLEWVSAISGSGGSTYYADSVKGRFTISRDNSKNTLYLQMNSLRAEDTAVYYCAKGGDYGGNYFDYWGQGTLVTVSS
VL: B4 VL with G9A
B18: pab2179 (IgG1) (antibody, V domains shown)
VH: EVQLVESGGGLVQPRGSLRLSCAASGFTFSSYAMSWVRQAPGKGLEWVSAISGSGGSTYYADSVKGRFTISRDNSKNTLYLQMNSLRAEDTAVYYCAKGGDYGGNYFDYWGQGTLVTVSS
VL: B4 VL with N53S, A60D
B19: pab2175 (IgG1) (antibody, V domains shown)
VH: not shown
VL: B4 VL with G9A, R61S
B20: pab2190 (IgG1) (antibody, V domains shown)
VH: not shown
VL: B4 VL with N53S, A60D
B21: pab2182 (IgG1) (antibody, V domains shown)
VH: not shown
VL: B4 VL with D50G, N53S, L96I
B22: pab2189 (IgG1) (antibody, V domains shown)
VH: not shown
VL: B4 VL with G9A
B23: pab2176 (IgG1) (antibody, V domains shown)
VH: not shown
VL: B4 VL
B24: pab2188 (IgG1) (antibody, V domains shown)
VH: not shown
VL: B4 VL with G9A, R61S
B25: pab2180 (IgG1) (antibody, V domains shown)
VH: not shown
VL: B4 VL with N53S, A60D
B26: pab2184 (IgG1) (antibody, V domains shown)
VH: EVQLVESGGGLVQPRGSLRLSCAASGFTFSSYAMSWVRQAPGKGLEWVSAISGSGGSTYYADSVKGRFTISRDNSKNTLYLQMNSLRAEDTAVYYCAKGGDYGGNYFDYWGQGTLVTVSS
VL: B4 VL with D50G, N53S, L96I
B27: pab2183 (IgG1) (antibody, V domains shown)
VH: not shown
VL: B4 VL with G9A, D50G, N53T

These binders were tested against T1, recombinant human DR3 Fc (R&D Systems, …) (assay: Luminex suspension array, antigen coupled to beads).

Row | Binder | binding result
1 | B1 | no binding (tested: 10000 ng/ml to 0.1 ng/ml)
2 | B2 | no binding (tested: 10000 ng/ml to 0.1 ng/ml)
3 | B3 | no binding (tested: 10000 ng/ml to 0.1 ng/ml)

These binders were tested against T2, recombinant human GITR Fc (R&D Systems, …) (assay: Luminex suspension array, antigen coupled to beads).

Row | Binder | binding result
4 | B1 | no binding (tested: 10000 ng/ml to 0.1 ng/ml)
5 | B2 | no binding (tested: 10000 ng/ml to 0.1 ng/ml)
6 | B3 | no binding (tested: 10000 ng/ml to 0.1 ng/ml)

Each binder was assayed against T3, recombinant human TIM-4 His (R&D, …) (assay: Luminex suspension array, antigen coupled to beads).

Row | Binder | binding result
7 | B1 | no binding (tested: 10000 ng/ml to 0.1 ng/ml)
8 | B2 | no binding (tested: 10000 ng/ml to 0.1 ng/ml)
9 | B3 | no binding (tested: 10000 ng/ml to 0.1 ng/ml)

These binders were tested against T4, recombinant human OX40 His (Sino …) (assay: Luminex suspension array, antigen coupled to beads).

Row | Binder | binding result
10 | B1 | no binding (tested: 10000 ng/ml to 0.1 ng/ml)
11 | B2 | no binding (tested: 10000 ng/ml to 0.1 ng/ml)
12 | B3 | no binding (tested: 10000 ng/ml to 0.1 ng/ml)

The binders below were run against T8, recombinant human CD137 Fc (in house produced material) (human, UniProt Q07011 24-186) (assay: Luminex suspension array, antigen coupled to beads).
T8 construct: also called rhCD137 Fc; not shown: Fc part

Row | Binder | binding result
13 | B1 | no binding (tested: 10000 ng/ml to 0.1 ng/ml)
14 | B2 | no binding (tested: 10000 ng/ml to 0.1 ng/ml)
15 | B3 | no binding (tested: 10000 ng/ml to 0.1 ng/ml)

What follows are binders tested against T5, recombinant mouse TIM-3 Fc (R&D …) (assay: Luminex suspension array, antigen coupled to beads).

Row | Binder | binding result
16 | B1 | no binding (tested: 10000 ng/ml to 0.1 ng/ml)
17 | B2 | no binding (tested: 10000 ng/ml to 0.1 ng/ml)
18 | B3 | no binding (tested: 10000 ng/ml to 0.1 ng/ml)

Each binder was assayed against T6, recombinant human TIM-1 His (R&D …) (assay: Luminex suspension array, antigen coupled to beads).

Row | Binder | binding result
19 | B1 | no binding (tested: 10000 ng/ml to 0.1 ng/ml)
20 | B2 | no binding (tested: 10000 ng/ml to 0.1 ng/ml)
21 | B3 | no binding (tested: 10000 ng/ml to 0.1 ng/ml)

What follows are binders tested against T7, human TIM-3 expressed on cells (assay: flow cytometry, anti-CD3/anti-CD28 activated primary human CD8+ T cells).

Row | binding result | Binder
22 | binds | B4
23 | binds | B5
24 | binds | B6
25 | binds | B7
26 | binds | B8
27 | binds | B9

What follows are binders tested against T7, human TIM-3 expressed on cells (assay: flow cytometry, Jurkat cells ectopically expressing human TIM-3).

Row | binding result | Binder
28 | binds | B1
29 | binds | B10
30 | binds | B3

These binders were tested against T7, human TIM-3 expressed on cells (assay: flow cytometry, 1624-5 cells expressing human TIM-3).

Row | binding result | Binder
31 | binds | B11
32 | binds | B12
33 | binds | B13
34 | binds | B14
35 | binds | B15
36 | binds | B16
37 | binds | B17
38 | binds | B18
39 | binds | B19
40 | binds | B20
41 | binds | B21
42 | binds | B22
43 | binds | B23
44 | binds | B24
45 | binds | B25
46 | binds | B26
47 | binds | B27

Each binder was assayed against T7, human TIM-3 expressed on cells (assay: flow cytometry, Jurkat cells ectopically expressing human TIM-3; pab2188w is the weaker comparator).

Row | binding result | Binder
48 | binds | B2
